Experimental data from patent US20200138943A1 (Janssen / Centocor, published 2020).

T1: human recombinant IL-23 (human, UniProt P29460 23-328)
T1 construct: p19-p40 heterodimer; also called hrIL-23; hIL-23
T1 sequence 1: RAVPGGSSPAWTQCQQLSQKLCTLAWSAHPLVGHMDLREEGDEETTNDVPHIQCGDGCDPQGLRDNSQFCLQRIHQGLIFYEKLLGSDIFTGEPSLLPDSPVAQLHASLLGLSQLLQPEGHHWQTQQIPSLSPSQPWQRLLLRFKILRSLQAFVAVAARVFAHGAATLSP
T1 sequence 2: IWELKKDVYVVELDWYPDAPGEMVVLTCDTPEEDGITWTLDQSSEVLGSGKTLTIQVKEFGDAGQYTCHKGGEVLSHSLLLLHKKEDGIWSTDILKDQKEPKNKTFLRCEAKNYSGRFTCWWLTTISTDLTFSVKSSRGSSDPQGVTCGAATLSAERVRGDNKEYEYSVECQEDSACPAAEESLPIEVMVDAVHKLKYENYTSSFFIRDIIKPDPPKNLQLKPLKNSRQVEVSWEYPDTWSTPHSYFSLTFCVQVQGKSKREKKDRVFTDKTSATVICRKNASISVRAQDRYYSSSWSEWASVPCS

T2: human recombinant p40 monomer (human, UniProt P29460 23-328)
T2 construct: also called hrp40
T2 sequence (looked up): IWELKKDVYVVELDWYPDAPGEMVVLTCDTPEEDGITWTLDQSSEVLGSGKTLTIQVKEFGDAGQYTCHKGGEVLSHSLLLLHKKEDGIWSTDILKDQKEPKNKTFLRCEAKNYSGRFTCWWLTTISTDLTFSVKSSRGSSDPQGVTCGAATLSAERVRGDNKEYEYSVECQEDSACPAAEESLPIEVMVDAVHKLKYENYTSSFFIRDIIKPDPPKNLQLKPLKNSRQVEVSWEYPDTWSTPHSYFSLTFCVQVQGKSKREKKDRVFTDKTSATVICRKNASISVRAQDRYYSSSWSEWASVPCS

T3: human recombinant IL-12 (human, UniProt P29459 23-219; P29460 23-328)
T3 construct: p35-p40 heterodimer; also called hrIL-12
T3 sequence (looked up) 1: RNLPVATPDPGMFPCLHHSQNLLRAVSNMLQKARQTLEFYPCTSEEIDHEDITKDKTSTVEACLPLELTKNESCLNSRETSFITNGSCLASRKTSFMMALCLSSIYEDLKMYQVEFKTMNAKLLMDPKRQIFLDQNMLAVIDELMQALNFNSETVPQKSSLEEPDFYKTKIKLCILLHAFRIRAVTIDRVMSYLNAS
T3 sequence (looked up) 2: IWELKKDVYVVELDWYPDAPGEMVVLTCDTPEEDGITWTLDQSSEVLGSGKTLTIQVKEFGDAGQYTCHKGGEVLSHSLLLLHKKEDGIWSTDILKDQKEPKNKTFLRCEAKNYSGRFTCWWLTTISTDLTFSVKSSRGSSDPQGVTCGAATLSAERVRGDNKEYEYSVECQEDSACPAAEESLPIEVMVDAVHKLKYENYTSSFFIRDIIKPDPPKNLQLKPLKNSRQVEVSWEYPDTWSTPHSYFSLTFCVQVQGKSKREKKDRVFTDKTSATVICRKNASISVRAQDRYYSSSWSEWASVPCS

T4: murine IL-23 (mouse, UniProt Q9EQ14 22-196; P43432 23-335)
T4 construct: also called mouse IL-23
T4 sequence (looked up) 1: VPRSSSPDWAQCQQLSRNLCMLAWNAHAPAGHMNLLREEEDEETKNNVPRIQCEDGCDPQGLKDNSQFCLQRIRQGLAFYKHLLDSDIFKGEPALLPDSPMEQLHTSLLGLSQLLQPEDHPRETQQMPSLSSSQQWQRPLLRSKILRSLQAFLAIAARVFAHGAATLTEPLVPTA
T4 sequence (looked up) 2: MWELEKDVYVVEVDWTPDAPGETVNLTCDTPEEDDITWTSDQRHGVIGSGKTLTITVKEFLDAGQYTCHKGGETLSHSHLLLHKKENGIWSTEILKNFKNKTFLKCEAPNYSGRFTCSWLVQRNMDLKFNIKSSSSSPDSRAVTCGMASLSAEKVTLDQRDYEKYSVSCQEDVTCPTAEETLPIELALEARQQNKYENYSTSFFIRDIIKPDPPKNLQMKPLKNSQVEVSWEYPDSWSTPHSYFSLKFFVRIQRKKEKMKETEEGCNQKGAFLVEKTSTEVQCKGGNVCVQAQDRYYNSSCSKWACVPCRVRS


Key:
[1] = target: T1, human recombinant IL-23; assay: ELISA: mAb immobilized on the plate, biotinylated IL-23 (bt.IL-23) titrated from about 0.01 to 100 ng/ml
[2] = target: T2, human recombinant p40 monomer; assay: cytokine capture ELISA: mAb coated on the plate, cytokine at 100 ng/ml, detected with biotinylated anti-p40 mAb and HRP-streptavidin
Protocol: (§1) Purified mouse anti-human IL-23 mAbs were evaluated in cytokine capture ELISA to determine their antigen subunit specificity. Briefly, IL-23 mAbs were coated onto plates and incubated with 100 ng/ml (hr=human recombinant) hrIL-23, hrIL-12, and hrp40, respectively. Following incubation with biotinylated anti-p40 mAb, the binding was detected using HRP-conjugated streptavidin. An anti-p40 mAb and an anti-IL-12 mAb (20C2, Catalog No. 555065, BD Pharmingen, San Diego, Calif.) with known specificity were used as controls.

[3] = target: T3, human recombinant IL-12; assay: as above
Protocol: as §1

[4] = target: mutant human IL-23 protein 3397 (human) (UniProt P29460); assay: MSD ELISA, coated IL-23 protein, Sulfo-TAG labeled mAb
[5] = target: mutant human IL-23 protein 3220 (human) (UniProt P29460); assay: as above
[6] = target: T1, human recombinant IL-23; assay: blocking ELISA: biotinylated hrIL-23 preincubated with the titrated mAb, binding to plate-immobilized IL-23R detected with HRP-streptavidin
Protocol: (§2) In this experiment, IL-23R was immobilized on a plate. Biotinylated hrIL-23 was added to the plate either alone or after preincubation with individual IL-23p19 mAbs. Soluble IL-23R (IL-23R-Fc) was used as a positive control. IL-23 binding was detected with HRP-conjugated streptavidin. […] In contrast, when IL-12Rβ1 was immobilized on a plate, none of the IL-23p19 mAbs were able to inhibit IL-23/IL-12Rβ1 binding (data not shown).

[7] = target: T4, murine IL-23; assay: MSD ELISA: protein coated at 100 to 0 µg/mL, detected with 2 µg/mL Sulfo-TAG labeled mAb
Protocol: One-hundred and fifty μl of 5% MSD Blocker A buffer was added to each well and incubated for 1 hr at room temperature. Plates were washed three times with 0.1 M HEPES buffer, pH 7.4. These protein-charged ELISA micro-wells were incubated with 25 μl of 2 μg/mL MSD Sulfo-TAG labeled C1249, C1269, or CNTO 209 mAbs. After incubation for 2 hours with shaking at room temperature, plates were washed 3 times with 0.1 M HEPES buffer (pH 7.4). MSD Read Buffer T was diluted with distilled water (4 fold) and dispensed at a volume of 150 μl/well and analyzed with a SECTOR imager 6000.

[8] = target: T1, human recombinant IL-23; assay: competition ELISA: hIL-23 coated on the plate, 10 nM labeled C1269 mixed with the unlabeled competitor titrated from 3000 nM to 0
Protocol: […] of a 20 μg/ml hIL-23 coated on plate, mixed with 10 nM of labeled C1269 and serially diluted from 3000 nM to 0 unlabeled competitors, C1269 and C1249, in 25 μL. Relative binding was calculated by setting the signal in the absence of competitor to 100%.

[9] = target: T1, human recombinant IL-23; assay: blocking ELISA: biotinylated hrIL-23 preincubated with the titrated protein, binding to plate-immobilized IL-23R detected with HRP-streptavidin
Protocol: as §2

[10] = target: T1, human recombinant IL-23; assay: as above; remark: listed apart in the source
Protocol: as §2

Binder	binding result [1]	binding result [2]	binding result [3]	percent reduction of binding against wild-type human IL-23 [4]	percent reduction of binding activity against wild-type human IL-23 [5]	IC50 (read off the curve) [6]	binding result [7]	IC50 (read off the curve) [8]	IC50 (read off the curve) [9]	IC50 (read off the curve) [10]
C1269 (antibody, V domains shown, Purified mouse monoclonal antibody; also called IL-23p19 mAb; mouse anti-human IL-23 mAb) VH: DVNLVESGGGLVKPGGSLKLSCAASGFTFSSYTMSWVRQTPEKRLEWVATISSGGTYTYYPDSVKGRFTISRDNAKNTLYLQMSSLKSEDTAIFYCTRDNHAYDRGPFFDSWGQGATLTVSS VL: DIVMSQSPSSLAVSVGEKVTMSCKSSQNLFYRNNQKNYLAWYQQKPGQSPTLLIYWTSTRESGVPDRFTGSGSGTDFTLTISRVKAEDLAVYYCQQYYSYPPTFGGGTKLEIK	–	no binding (tested: 100 ng/ml)	no binding (tested: 100 ng/ml)	90%	> 80%	~0.07 µg/mL	no binding	~20 nM	–	–
C1273 (antibody, V domains shown, Purified mouse monoclonal antibody; also called IL-23p19 mAb; mouse anti-human IL-23 mAb) VH: DVNLVESGGGLVKPGGSLKLSCAASGFTFSSYTMSWVRQTPEKRLEWVATISSGGTYTYYPDSVKGRFTISRDNAKNTLYLQMSSLKSEDTAMFYCTRDNHAYDRGPFFDYWGQGATLTVSS VL: DIVMSQSPSSLVVSVGEKVTMSCKSSQNLFYRSNQKNHLAWYQQKPGQSPTLLIYWTSTRESGVPDRFTGSGSGTDFTLTISRVKAEDLAVYYCQQYYSYPPTFGGGTKLEIK	–	no binding (tested: 100 ng/ml)	no binding (tested: 100 ng/ml)	–	–	~0.1 µg/mL	–	–	–	–
C1249 (antibody, V domains shown, Purified mouse monoclonal antibody; also called IL-23p19 mAb; mouse anti-human IL-23 mAb) VH: EVQLVESGGGLVQPKGSLKLSCAASGFNFNTYAMHWVCQAPGKGLEWIGRIRSKSHNYATDYADPVKDRFTISRDDSQGLLYLLMNNLKTEDTAMYYCMREGIYGSFAYWGQGTLVTVSA VL: DIVLTQSPASLAVSLGQRATISCRASKSVSSSAYSFFHWYQQKPGQPPKLLIYLASNLQSGVPARFSGSGSGTDFTLNIHPVEAEDAATYYCQHSGELPFTFGSGTKLEIK	binds	no binding (tested: 100 ng/ml)	no binding (tested: 100 ng/ml)	95%	> 80%	–	no binding	–	–	–

More lines, now with the values ahead:

binding result [1]	binding result [2]	binding result [3]	percent reduction of binding against wild-type human IL-23 [4]	percent reduction of binding activity against wild-type human IL-23 [5]	IC50 (read off the curve) [6]	binding result [7]	IC50 (read off the curve) [8]	IC50 (read off the curve) [9]	IC50 (read off the curve) [10]	Binder
binds	no binding (tested: 100 ng/ml)	no binding (tested: 100 ng/ml)	–	–	–	–	–	–	–	C1275 (antibody, V domains shown, Purified mouse monoclonal antibody; also called IL-23p19 mAb; mouse anti-human IL-23 mAb) VH: EVNLEESGGGLVQPGRSMKLSCVASGFTFSNYWMTWVRQSPEKGLEWVAEIRLKSNNYATHYAESVKGRFTISRDDSKSSVYLQMNNLRAEDTAIYYCTRGGGYDVGAWFAYWGQGTLVTVSA VL: DIVLTQSPASLAVSLGQRATISCRASENVEYYGTGLIQWYQQKPGQPPKLLIYASSNVESGVPARFSGSGSGTDFSLYIHPVEEDDIAMYFCQQSRKVPSTFGGGTKLEIK
–	–	–	–	–	–	–	–	~0.04 µg/mL	~0.05 µg/mL	Soluble IL-23R (IL-23R-Fc) (Fc fusion, UniProt Q5VWK5 24-353, looked up, not shown: a dimerising Fc or GST) GITNINCSGHIWVEPATIFKMGMNISIYCQAAIKNCQPRKLHFYKNGIKERFQITRINKTTARLWYKNFLEPHASMYCTAECPKHFQETLICGKDISSGYPPDIPDEVTCVIYEYSGNMTCTWNAGKLTYIDTKYVVHVKSLETEEEQQYLTSSYINISTDSLQGGKKYLVWVQAANALGMEESKQLQIHLDDIVIPSAAVISRAETINATVPKTIIYWDSQTTIEKVSCEMRYKATTNQTWNVKEFDTNFTYVQQSEFYLEPNIKYVFQVRCQETGKRYWQPWSSLFFHKTPETVPQVTSKAFQHDTWNSGLTVASISTGHLTSDNRGD
